Data set [1] has as its target human chymotrypsin C (CTRC) mutant N52S, active enzyme (human) (UniProt Q99895). Kind of data set: equilibrium inhibitor binding assay.
Data set [2] has as its target human chymotrypsin C (CTRC), wild type, active enzyme (human) (UniProt Q99895). Kind of data set: equilibrium inhibitor binding assay.
The nature of data set [3]: active site titration of media with SGPI-2. The conditions noted are these: glycan lost; control: wild type.
The nature of data set [4]: steady-state kinetics, purified CTRC. The conditions noted are these: glycan lost; control: wild type (HEK 293T).
A short description of data set [5]: casein digestion time course, SDS-PAGE. The settings on record: glycan lost; control: wild type (HEK 293T).
Data set [6] is described as follows: Leu81-Glu82 cleavage time course, SDS-PAGE. The conditions noted are these: glycan lost; control: wild type (HEK 293T).
A short description of data set [7]: trypsin-induced mobility shift on reducing SDS-PAGE. The settings on record: glycan lost; control: wild type.
Data set [8] in a line: CTRC activity of HEK 293T conditioned media. The settings on record: glycan gained; control: wild type.

For the molecule “Schistocerca gregaria proteinase inhibitor-2 (SGPI-2) (natural protein)”, the Kd in data set [1] came out at 2.7 nM; in data set [2] it was 3.9 nM.

B1: rat CTRC: N90S (protein)
parent chain: MLGITVLAAILACASCCGNPAFPPNLSTRVVGGEDAVPNSWPWQVSLQYLKDDTWRHTCGGSLITTSHVLTAAHCINKDFTYRVGLGKYNLTVEDEEGSVYAEVDTIYVHEKWNRLFLWNDIAIIKLAEPVELSNTIQVACIPEEGSLLPQDYPCYVTGWGRLWTNGPIAEVLQQGLQPIVSHATCSRLDWWFIKVRKTMVCAGGDGVISACNGDSGGPLNCQAEDGSWQVHGIVSFGSSSGCNVHKKPVVFTRVSAYNDWINEKIQL
Turning to B1, the “expression_or_secretion, other: concentration in medium” value in data set [3] is recorded as “decreases, 62.4 vs 175”.

B2: human chymotrypsin C (CTRC): N52S (protein)
parent chain: MLGITVLAALLACASSCGVPSFPPNLSARVVGGEDARPHSWPWQISLQYLKNDTWRHTCGGTLIASNFVLTAAHCISNTRTYRVAVGKNNLEVEDEEGSLFVGVDTIHVHKRWNALLLRNDIALIKLAEHVELSDTIQVACLPEKDSLLPKDYPCYVTGWGRLWTNGPIADKLQQGLQPVVDHATCSRIDWWGFRVKKTMVCAGGDGVISACNGDSGGPLNCQLENGSWEVFGIVSFGSRRGCNTRKKPVVYTRVSAYIDWINEKMQL
As for B2, the “enzymatic_activity, kcat_Km” value in data set [4] is listed as “no change, 1.2 × 106 vs 1.2 × 106”. Besides, the enzymatic_activity result in data set [5] and in data set [6] was “no change” throughout. Moreover, in data set [7], the “other: proteolytic processing” value is reported as “no change”.

B3: bovine CTRC: E92T (protein)
parent chain: MLGITVFTTFLAYASSCGAPIFQPNLSARVVGGEDAIPHSWPWQISLQYLRDNTWRHTCGGTLITPNHVLTAAHCISNTLTYRVALGKNNLEVEDEAGSLYVGVDTIFVHEKWNSFLVRNDIALIKLAETVELSDTIQVACLPEEGSLLPQDYPCFVTGWGRLYTNGPIAAELQQGLQPVVDYATCSQRDWWGTTVKETMVCAGGDGVISACNGDSGGPLNCQAENGNWDVRGIVSFGSGLSCNTFKKPTVFTRVSAYIDWINQKLQL
Turning to B3, the “expression_or_secretion, fold_change” value in data set [8] is “no change”.
